Drawing on PMC314469, “Protein Interaction Networks by Proteome Peptide Scanning” (PLoS Biology, 2004), this text covers normalised SPOT signal, Boehringer light units (BLU); mean over the file's lines of this peptide for 38 molecules.

Experiment [1] has as its target T1, amphyphisin SH3 (AMPH_HUMAN), P49418.
T1 chain: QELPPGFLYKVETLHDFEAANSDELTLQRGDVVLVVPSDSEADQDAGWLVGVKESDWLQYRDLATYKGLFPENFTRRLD
The experiment in a line: SPOT array.

The target in experiment [2] is endophilin SH3 (SH3G2_HUMAN), Q99962. Description: SPOT array.

Consider SGRHFRRPDPSREP [Q9H9Q6 68-81], for which the normalised SPOT signal, Boehringer light units (BLU); mean over the file's lines of this peptide in experiment [1] is 23.3; in experiment [2], 15.

With VSPGPIRPIRQISD [Q14183 21-34], the figures for the normalised SPOT signal, Boehringer light units (BLU); mean over the file's lines of this peptide in experiment [1] and in experiment [2] were 1280 and 254, respectively.

With VHGDIFRPPRKGML [Q99805 351-364], the normalised SPOT signal, Boehringer light units (BLU); mean over the file's lines of this peptide was found to be 4010 in experiment [1] and 97.6 in experiment [2].

VEPPPRRPMSQKSE [Q96MR0 151-164]: the normalised SPOT signal, Boehringer light units (BLU); mean over the file's lines of this peptide in experiment [1] stood at 247; in experiment [2] it was 258.

For the molecule VKLLIRRPESFGPA [Q15413 2218-2231], the normalised SPOT signal, Boehringer light units (BLU); mean over the file's lines of this peptide turned out to be 40.2 in experiment [1] and 144 in experiment [2].

VGASLTRPSRKLRW [Q92502 483-496]: the figures for the normalised SPOT signal, Boehringer light units (BLU); mean over the file's lines of this peptide in experiment [1] and in experiment [2] were 7280 and 269, respectively.

With VEGSPFRPPSHSFS [O95359 85-99], the results for the normalised SPOT signal, Boehringer light units (BLU); mean over the file's lines of this peptide in experiment [1] and in experiment [2] were 51.3 and 79.6, respectively.

On to VGIQLRRPLFQKVT [P21709 133-146], for which the normalised SPOT signal, Boehringer light units (BLU); mean over the file's lines of this peptide in experiment [1] came out at 36.6; in experiment [2] it was 77.8.

Turning to VGTLPSKPPFRFGQ [O60318 21-35], the values for the normalised SPOT signal, Boehringer light units (BLU); mean over the file's lines of this peptide in experiment [1] and in experiment [2] were 169 and 498, respectively.

Turning to VFQAPRRPGIGTVG [Q9UL18 20-33], the normalised SPOT signal, Boehringer light units (BLU); mean over the file's lines of this peptide in experiment [1] stood at 155; in experiment [2] it was 728.

Regarding VGKAFIRPFREHHI [Q9GZT0 109-122], the results for the normalised SPOT signal, Boehringer light units (BLU); mean over the file's lines of this peptide in experiment [1] and in experiment [2] were 11700 and 390, respectively.

Turning to VSRLPKRPEPSPPL [Q15515 17-30], the normalised SPOT signal, Boehringer light units (BLU); mean over the file's lines of this peptide in experiment [1] came to 30; in experiment [2], 3650.

Consider SGPPPLRPPLPAAA [P22004 21-35], for which the figures for the normalised SPOT signal, Boehringer light units (BLU); mean over the file's lines of this peptide in experiment [1] and in experiment [2] were 58.3 and 4710, respectively.

Take VFTPLRRPGMLVPK [Q9UIW6 20-33]: the normalised SPOT signal, Boehringer light units (BLU); mean over the file's lines of this peptide in experiment [1] came out at 98; in experiment [2], 187.

Regarding VFRVLRRPQEFVNR [Q9ULB8 127-140], the normalised SPOT signal, Boehringer light units (BLU); mean over the file's lines of this peptide worked out at 72.4 in experiment [1] and 281 in experiment [2].

VKKIPKKPPAPDPF [Q9UQN5 1344-1358]: the normalised SPOT signal, Boehringer light units (BLU); mean over the file's lines of this peptide was determined as 56.8 in experiment [1] and 2740 in experiment [2].

In the case of VETSLRRPQDKDAK [P36776 780-793], the normalised SPOT signal, Boehringer light units (BLU); mean over the file's lines of this peptide in experiment [1] is 26.8; in experiment [2], 43.5.

VEELLRRPMDSLDS [P42229 764-777]: the normalised SPOT signal, Boehringer light units (BLU); mean over the file's lines of this peptide in experiment [1] was found to be 30.5; in experiment [2], 46.2.

With VAWHPKRPLLAFAS [Q96J01 313-326], the normalised SPOT signal, Boehringer light units (BLU); mean over the file's lines of this peptide in experiment [1] stood at 32.8; in experiment [2], 267.

For the molecule VDNTIKRPNPAPGT [Q9UQ13 68-81], the figures for the normalised SPOT signal, Boehringer light units (BLU); mean over the file's lines of this peptide in experiment [1] and in experiment [2] were 7.4 and 51.8, respectively.

Regarding SGVRFHRPYRLLMH [Q9NT61 332-345], the normalised SPOT signal, Boehringer light units (BLU); mean over the file's lines of this peptide was 1490 in experiment [1] and 200 in experiment [2].

For the molecule VSARPEKPPGQVTR [P35475 539-553], the normalised SPOT signal, Boehringer light units (BLU); mean over the file's lines of this peptide in experiment [1] was 42.3; in experiment [2], 98.9.

Regarding VGASLTRPNRRLRW [Q9Y3M8 456-469], the normalised SPOT signal, Boehringer light units (BLU); mean over the file's lines of this peptide was determined as 1960 in experiment [1] and 177 in experiment [2].

For VKPGLRRPPASPAL [Q05215 182-195], the values for the normalised SPOT signal, Boehringer light units (BLU); mean over the file's lines of this peptide in experiment [1] and in experiment [2] were 32.8 and 34.9, respectively.

Regarding VHLKLRRPVTVPAG [Q9BT99 240-253], the normalised SPOT signal, Boehringer light units (BLU); mean over the file's lines of this peptide in experiment [1] was 28; in experiment [2], 64.9.

Turning to SISKPERPMKFLRE [P31321 38-51], the values for the normalised SPOT signal, Boehringer light units (BLU); mean over the file's lines of this peptide in experiment [1] and in experiment [2] were 609 and 8910, respectively.

Regarding VSRDITRPPKTVAT [Q14425 672-685], the normalised SPOT signal, Boehringer light units (BLU); mean over the file's lines of this peptide in experiment [1] came out at 119; in experiment [2], 189.

In the case of VKMQLRRPSDQEVS [Q04864 259-272], the results for the normalised SPOT signal, Boehringer light units (BLU); mean over the file's lines of this peptide in experiment [1] and in experiment [2] were 81.1 and 382, respectively.

As to VKIPPKRPPRKHIV [Q8WVK0 107-121], the figures for the normalised SPOT signal, Boehringer light units (BLU); mean over the file's lines of this peptide in experiment [1] and in experiment [2] were 17500 and 14900, respectively.

On to VEHVPGRPVRNPQS [P25391 53-66], for which the normalised SPOT signal, Boehringer light units (BLU); mean over the file's lines of this peptide turned out to be 638 in experiment [1] and 49.9 in experiment [2].

With VEGILKRPPDEQRL [Q15370 31-44], the normalised SPOT signal, Boehringer light units (BLU); mean over the file's lines of this peptide came to 32.4 in experiment [1] and 20.6 in experiment [2].

As for VKLKIKRPYGRKSQ [O60281 820-833], the figures for the normalised SPOT signal, Boehringer light units (BLU); mean over the file's lines of this peptide in experiment [1] and in experiment [2] were 30.3 and 32, respectively.

Take VSLALVRPSKMGLS [O15403 466-479]: the figures for the normalised SPOT signal, Boehringer light units (BLU); mean over the file's lines of this peptide in experiment [1] and in experiment [2] were 53.1 and 9.5, respectively.

Consider VESILKRPSSAITR [Q9NPG6 312-325], for which the values for the normalised SPOT signal, Boehringer light units (BLU); mean over the file's lines of this peptide in experiment [1] and in experiment [2] were 27.1 and 31.6, respectively.

VGDVLRRPSKDEPL [Q14571 2500-2513]: the results for the normalised SPOT signal, Boehringer light units (BLU); mean over the file's lines of this peptide in experiment [1] and in experiment [2] were 26 and 115, respectively.

With VSPGPIRPIKQISD [Q14184 22-35], the normalised SPOT signal, Boehringer light units (BLU); mean over the file's lines of this peptide in experiment [1] was determined as 126; in experiment [2], 344.

For the molecule VFLSFRRPFWREEH [Q96RQ9 355-368], the results for the normalised SPOT signal, Boehringer light units (BLU); mean over the file's lines of this peptide in experiment [1] and in experiment [2] were 12.9 and 13.7, respectively.

As for VGTELLRPLRGLLS [Q9NX26 97-110], the normalised SPOT signal, Boehringer light units (BLU); mean over the file's lines of this peptide in experiment [1] came out at 320; in experiment [2], 112.
